According to patent publication US20110286916A1 (published 2011):
Residue numbers refer to the chain shown, from its start.

B1: hN1S3-190 (scFv, V domains shown)
VH: QVQLVQSGAEVKKPGASVRISCKTSGFTFTSYFIHWVRQAPGQRPEWMGVINPSRGNADYAPRFRGRVTMTRDKSTHTVYMDLKSLRSDDAAIYYCARDRLGGLLDYYDSSDSSKNFDAFDFWGQGTLVTVSS
VL: SSELTQDPAVSVALGQTVRITCQGDSLRSNYPSWYQQKPGQAPLLVIYSENRRPSGIPDRFSASRSGNTASLTITGAQAEDEADYYCHSRGSSGNHKVFGGGTQLTVL
notes: phage scFv
B2: N1wc164 (scFv, V domains shown)
VH: QVQLVQSGADVKKPGASVKISCKASGYTFTKYYMHWVRQAPGQGLEWMGIINPTNGYTSYAQKFQGRVTMTSDTSASTVSMELSSLRSEDTAVYYCTRSYSNYDSFDIWGRGTMVTVSS
VL: QAVLTQPSSVSGAPGQRITISCTGTSSNIGAGYDVEWYQHLPGTAPKLLIYRNSNRPSGVPDRFSASKSGTSASLVITGLQAEDEADYYCQSYDTRLSDSVIFGGGTKLTVL
notes: phage scFv
B3: hN1S3-108 (scFv, V domains shown)
VH: QVQLVQSGAEVRKPGASVKVSCKASGYTFTDYYLHWVRQAPGLGLEWMGWINPNTGGTDYGQKFQGRVTMTRDTSINTAYMELSSLRSDDTAVYYCARGAYDYVWGSHRYVADAFDIWGQGTTVTVSS
VL: DIVMTQSPSTLSASVGDRVTITCRASQGISSWLAWYQQKPGRAPKVLIYKASTLESGVPSRFSGSGSGTDFTLTISSLQPEDFATYYCQQSYSTPWTFGQGTKLEIK
notes: phage scFv
B4: N1wc24 (scFv, V domains shown)
VH: EVQLVESGPGLVKPSETLSLTCTVSGGSMTSNFWSWIRQTPGKGLEWIGYVLYTGSTNSNPSLKSRVTMSVDTSKNQVSLTLSSVTAADTAIYYCARGNGWYLPWGRGTMVTVSS
VL: QSVLTQPPSVSGAPRQRVTISCSGSSSNIENNIVNWYQQLPGEAPKLLIYYDNLLPSGVSDRFSGSKSGTSASLAISGLQSGDEADYYCAAWDDSLKAVVFGGGTKLTVL
notes: phage scFv
B5: N1wc125 (scFv, V domains shown)
VH: QVQLQQSGAEVKKPGAPLKVSCKTSGFTFTGYYIHWVRQAPGQGLEWMGRVDPYNGATNFAQKFQGRVTMTTDTSTSTTYMELMSLRSDDTAVYYCARGWELDSWGQGTLVTVSS
VL: QSVLTQPASVSGSPGQSITISCTGTSSDVGGYNYVSWYQQHPGKAPKLMIYEGSKRPSGVSNRFSGSKSGNTASLTISGLQAEDEADYYCSSYTTRSTRVFGGGTKLTVL
notes: phage scFv
B6: hN1S3-135 (scFv, V domains shown)
VH: EVQLVQSGAEVKKPGASVKVSCKASGYNFTGYYMHWVRQAPGQGLEWMGWINPNSGGTNYAQKFQGRVTMTRDTSISTAYMELSRLRSDDTAVYYCATDSFDYWGKGTLVTVSS
VL: LPVLTQPPSVSEAPRQRVTISCSGSSFNIGNNAVNWYQQLPGKAPKLLIYYDDLLPSGVSDRFSGSKSGTSASLAISGLQSEDEADYYCAAWDDSLNAVVFGGGTKVTVL
notes: phage scFv
B7: N1wc129 (scFv, V domains shown)
VH: B6 VH with E1Q, M34L, N52D, N59D, K63Q, M70V, R85G, T98S, Y103H, K106Q
VL: QSVLTQPPSASGTPGQRATISCSGSGSNIGRNAVNWFQQLPGAAPKLLIYSNIHRPSGVPDRISGSKSGTSATLAISGLQSEDEADYYCATWDDSLNDYVFGTGTKLTVL
notes: phage scFv
B8: N1wc132 (scFv, V domains shown)
VH: B6 VH with E1Q, M34L, N59D, M70V, S84G, R85G, A97V, T98S, Y103H, K106R
VL: QSVLTQPPSASGTPGQRVTISCSGSSSNIGSNPVNWYQQLPGSAPKLLVYSDDQRPSGVPDRFSGSKSGASASLAISGLQSEDESDYYCAAWDDSQNAVVFGGGTKVTVL
notes: phage scFv
B9: N1wc150 (scFv, V domains shown)
VH: B6 VH with K106R, L109M
VL: SYELTQPPSASGTPGQRVTISCSGSGSNIGKNTVNWYQQLPGAAPKLLIYSNNERPSGVPGRFSGSKSGTSASLAISGLQSEDETDYYCAAWDDSLNDMVFGGGTKVTVL
notes: phage scFv
B10: hN1S3-107 (scFv, V domains shown)
VH: EVQLVQSGPEVKKPGASVKVSCKASGYTFTDYFLNWVRQAPGQGLEWIGWINPNTGGTNYAQNFQGRVTVTRDASISTAYMELRSLTSADTAIYYCARGAYDYVWGSHRYVADAFDIWGQGTLVTVSS
VL: QSVLTQPPSASGTPGQRVTISCSGSSSNIGSNTVNWYQRLPGAAPQLLIYNNDQRPSGIPDRFSGSKSGTSGSLVISGLQSEDEADYYCASWDDSLNGRVFGGGTKLTVL
notes: phage scFv
B11: N1wc21 (scFv, V domains shown)
VH: QVQLVESGAEVKKPGASVKVSCKASGYTFTDHYIQWLRQAPGQGLEWMGWMNPKSGGTNYAQKFQGRVTLTRDTSISTAYMDLSGLRFDDTAIYFCASDPTIPPSPNYDYYYYAMDLWGKGTLVTVSS
VL: SYELTQPPSVSVSPGQTARITCSGDALPDKYVHWYQQKSGQAPVLVLFDDSKRPSGIPERFSGSSSGTVATLIISGAQVEDEGDFFCYSTDSSGNERVFGGGTKLTVL
notes: phage scFv
B12: hN1S3-153 (scFv, V domains shown)
VH: QVQLQESGGGLVQPGGSLSLSCATSGFTFGNYVMRWVRQAPGKGLEWVSTITEGGGDFIYYADSVKGRFAISRDNSKSTVYLHMNGLRVEDTAVYYCAKSGGDDNSNYNFEYWGQGTLVTVSS
VL: QAVLTQPSSVSGAPGQRVIISCTGTSSNTGAGYYVNWYQQLPGAAPKVLIFGNDNRPSGVPDRFSGAKSGTSASLAITGLQAEDEADYYCQSYDRSLSGWVFGGGTKLTVL
notes: phage scFv
B13: N1wc82 (scFv, V domains shown)
VH: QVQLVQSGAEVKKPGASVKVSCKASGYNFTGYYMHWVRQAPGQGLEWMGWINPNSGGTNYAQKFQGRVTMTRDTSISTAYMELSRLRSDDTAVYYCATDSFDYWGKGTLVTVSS
VL: QSVLTQPPSVSATPGQKVTISCSGSNSNIGNNYVSWYQQLPGTAPKLLIYDSDQRPAGIPDRFSGSKLGTSATLGITGLQTGDEADYYCATWDAGLSVLIFGGGTKLTVL
notes: phage scFv
B14: N1wc113 (scFv, V domains shown)
VH: QMQLVQSGAEVKRPGASVNLSCKASGYSFSRYYIHWVRQAPGQGLELMGRINPGGGTTTYAQKFQGRVTLSRDTSTNTIFMELNGLTSEDTAMYYCARSNYDILAGYGPDAFDFWGQGTMVTVSS
VL: QAVLTQPSSVSGAPGQRVTISCTGSSSNIGAGNDVHWYRQFPGTAPKLLIYGNNKRPSGVSDRFSGSKSGTSASLAITGLQVEDEADYYCQSYDSSLGGSDVFGGGTKLTVL
notes: phage scFv
B15: N1wc127 (scFv, V domains shown)
VH: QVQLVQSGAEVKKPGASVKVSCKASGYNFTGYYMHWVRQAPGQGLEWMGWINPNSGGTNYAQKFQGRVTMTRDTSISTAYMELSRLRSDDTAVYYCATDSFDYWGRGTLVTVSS
VL: SYVLTQPPSTSGAPGQRVTISCSGSSSNIGSNGVNWYHHLPGTAPKLLIYSNFHRPSGVPDRFSGSKSGTSATLAISGLQSEDEADYYCAAWDDSLNDYVFGVGTKVTVL
notes: phage scFv
B16: N1wc16 (scFv, V domains shown)
VH: QVQLQQSGAEVKTPGASVKVSCKASGYTFTDNYIHWVRQAPGQGLEWMGRINVNSGATNYARKFQGRVTMTGDTSISTAYMDLSRLKSDDTAVYYCARDFRYSGVDVWGQGTMVTVSS
VL: QSVLTQPPSVSVAPGQTATLSCVGDAIERKSVHWYQQRPGQAPVLVVHDDSDRPSGIPDRISGSNSGNTATLTITRVEVGDEADYFCQVWDTSSGHDAVVFGGGTKLTVL
notes: phage scFv

Molecular target: T1, human full-length Notch1 with C-terminal FLAG tag, stably expressed on 293 FlpIn (TREx) cells (human, UniProt P46531 19-2555)
T1 construct: tetracycline/doxycycline-induced expression from pcDNA5/FRT/TO-HN1+FLAG; also called hN1; 293_N1
Assay: FACS, phage scFv

Q: Does B1 bind?
A: Result: binds

Q: Does B2 bind?
A: Result: binds

Q: Does B3 bind?
A: Result: binds

Q: Does B4 bind?
A: Result: binds

Q: Does B5 bind?
A: Result: binds

Q: Does B6 bind?
A: Result: binds

Q: Does B7 bind?
A: Result: binds

Q: Does B8 bind?
A: Result: binds

Q: Does B9 bind?
A: Result: binds

Q: Does B10 bind?
A: Result: binds

Q: Does B11 bind?
A: Result: binds

Q: Does B12 bind?
A: Result: binds

Q: Does B13 bind?
A: Result: binds

Q: Does B14 bind?
A: Result: binds

Q: Does B15 bind?
A: Result: binds

Q: Does B16 bind?
A: Result: binds

Molecular target: T2, human full-length Notch3 with C-terminal FLAG tag, stably expressed on 293 FlpIn (TREx) cells (human, UniProt Q9UM47 40-2321)
T2 construct: whole, on cells; made by the same strategy as the Notch1 line; also called 293-N3; hN3
Assay: FACS, phage scFv

Q: Does B1 bind?
A: Result: binds

Q: Does B2 bind?
A: Result: binds

Q: Does B3 bind?
A: Result: binds

Q: Does B4 bind?
A: Result: binds

Q: Does B5 bind?
A: Result: binds

Q: Does B6 bind?
A: Result: binds

Q: Does B7 bind?
A: Result: binds

Q: Does B8 bind?
A: Result: binds

Q: Does B9 bind?
A: Result: binds

Q: Does B10 bind?
A: Result: binds

Q: Does B11 bind?
A: Result: binds

Q: Does B12 bind?
A: Result: binds

Q: Does B13 bind?
A: Result: binds

Q: Does B14 bind?
A: Result: binds

Q: Does B15 bind?
A: Result: binds

Q: Does B16 bind?
A: Result: binds
